The text below walks through data of US20160009823A1 (Hoffmann-La Roche, published 2016).

The target of one assay is T1, human CD33-Fc fusion (human, UniProt P20138 18-259).
T1 construct: not shown: Fc part not described
The assay can be described thus: SPR, <CD33>-<DIG> on human CD33-Fc fusion as ligand, then DIG-siRNA. Background: Surface plasmon resonance follows binding to a sensor surface in real time, without labels.

In assay [1] the target is T2, recombinantly produced soluble extracellular domain of the RTK Her2 (UniProt P04626 23-652).
T2 construct: extracellular domain; also called Her2-ECD; Her2ECD
Kind of assay: SPR (BiaCore), zoom; AKH-5 captured, Her2 and siRNA-DIG in both orders.

Assay [2] addresses digoxygenated protein Dig-BP4. Kind of assay: SPR (Biacore), antibody captured by anti-human IgG, DIG-BP4 as analyte.
The target in assay [3] is mono-digoxygenated protein DIG-myoglobin. The assay can be described thus: SPR (Biacore), DIG-Myoglobin as analyte.
mono-digoxygenated protein DIG-myoglobin, sequence (P68082 2-154): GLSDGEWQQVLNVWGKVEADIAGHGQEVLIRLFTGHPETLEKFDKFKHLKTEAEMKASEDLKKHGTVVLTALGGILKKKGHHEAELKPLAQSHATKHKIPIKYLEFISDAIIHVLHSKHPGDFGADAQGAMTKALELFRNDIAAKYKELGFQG
Assay [4] shares this target. The assay can be described thus: SPR (Biacore), DIG-Myoglobin as analyte, replicate.
The target in a further assay is T3, human VEGFR2-Fc.
T3 chain: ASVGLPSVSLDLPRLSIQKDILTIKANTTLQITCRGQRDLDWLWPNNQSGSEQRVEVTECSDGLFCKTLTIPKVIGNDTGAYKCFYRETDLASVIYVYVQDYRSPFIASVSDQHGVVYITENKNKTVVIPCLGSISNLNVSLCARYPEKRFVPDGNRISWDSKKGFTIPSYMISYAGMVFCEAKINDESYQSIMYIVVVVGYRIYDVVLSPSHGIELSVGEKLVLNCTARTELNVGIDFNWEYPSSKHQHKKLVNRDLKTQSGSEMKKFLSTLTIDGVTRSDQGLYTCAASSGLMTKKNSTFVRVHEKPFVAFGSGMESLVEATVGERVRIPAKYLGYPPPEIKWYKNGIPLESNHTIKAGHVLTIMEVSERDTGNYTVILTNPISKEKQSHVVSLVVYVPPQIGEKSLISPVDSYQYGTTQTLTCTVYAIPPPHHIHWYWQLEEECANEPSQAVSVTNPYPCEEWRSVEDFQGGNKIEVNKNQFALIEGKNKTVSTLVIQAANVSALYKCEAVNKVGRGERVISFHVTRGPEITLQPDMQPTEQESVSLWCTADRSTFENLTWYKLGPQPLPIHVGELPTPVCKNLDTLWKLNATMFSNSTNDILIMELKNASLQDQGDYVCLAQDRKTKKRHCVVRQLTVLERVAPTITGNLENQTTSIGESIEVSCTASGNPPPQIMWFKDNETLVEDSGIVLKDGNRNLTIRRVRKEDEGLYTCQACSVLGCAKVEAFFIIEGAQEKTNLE
The assay can be described thus: SPR, drawn table under the head 'Affinity for DIG-siRNA' with a Capture column.

Another assay deals with T4, mouse VEGFR2-Fc.
T4 chain: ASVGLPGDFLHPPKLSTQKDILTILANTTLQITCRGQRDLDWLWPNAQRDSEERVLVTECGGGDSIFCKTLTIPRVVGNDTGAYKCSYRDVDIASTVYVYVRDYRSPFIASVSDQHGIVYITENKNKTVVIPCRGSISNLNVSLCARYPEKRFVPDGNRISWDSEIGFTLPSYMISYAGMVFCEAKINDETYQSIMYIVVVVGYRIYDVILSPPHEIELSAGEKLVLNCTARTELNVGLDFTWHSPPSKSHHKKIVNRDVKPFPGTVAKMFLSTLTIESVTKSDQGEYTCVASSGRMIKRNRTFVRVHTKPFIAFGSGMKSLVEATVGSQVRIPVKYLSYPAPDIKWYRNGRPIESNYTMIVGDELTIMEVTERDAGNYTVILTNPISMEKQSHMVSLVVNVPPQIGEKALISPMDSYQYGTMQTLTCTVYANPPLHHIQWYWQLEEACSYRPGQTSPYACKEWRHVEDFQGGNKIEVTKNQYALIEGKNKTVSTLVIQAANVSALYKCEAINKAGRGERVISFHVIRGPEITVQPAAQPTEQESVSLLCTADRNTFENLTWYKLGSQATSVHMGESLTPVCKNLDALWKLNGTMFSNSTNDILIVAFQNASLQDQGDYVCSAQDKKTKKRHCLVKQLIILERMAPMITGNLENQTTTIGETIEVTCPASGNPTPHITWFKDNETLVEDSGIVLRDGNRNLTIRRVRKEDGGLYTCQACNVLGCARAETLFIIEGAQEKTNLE
Described as above.

The target in assay [5] is digoxygenated protein Dig-BP4. The assay can be described thus: SPR (Biacore), antibody captured by anti-mouse IgG, DIG-BP4 as analyte.
The target of assay [6] is mono-digoxygenated protein DIG-myoglobin. The assay can be described thus: SPR (Biacore), DIG-Myoglobin as analyte. The source holds these as a separate data set.
The target of assay [7] is digoxygenated protein Dig-BP4. Kind of assay: SPR (Biacore); unit differs from Table 3 (33 pM).

T1 sequence (P20138 18-259): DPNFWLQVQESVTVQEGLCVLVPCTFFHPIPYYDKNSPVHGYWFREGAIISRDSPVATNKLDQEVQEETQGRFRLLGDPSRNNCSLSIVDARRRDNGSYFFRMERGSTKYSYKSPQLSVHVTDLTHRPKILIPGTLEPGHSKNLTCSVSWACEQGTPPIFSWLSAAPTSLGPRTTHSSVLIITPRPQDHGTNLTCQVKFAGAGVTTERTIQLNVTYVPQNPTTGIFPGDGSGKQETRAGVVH

B1: bispecific <CD33>-<DIG> antibody (bispecific antibody, human IgG1, kappa)
heavy: not shown
light: DIQLTQSPSTLSASVGDRVTITCRASESLDNYGIRFLTWFQQKPGKAPKLLMYAASNQGSGVPSRFSGSGSGTEFTLTISSLQPDDFATYYCQQTKEVPWSFGQGGTKVEVKEIKRTVAAPSVFIFPPSDEQLKSGTASVVCLLNNFYPREAKVQWKVDNALQSGNSQESVTEQDSKDSTYSLSSTLTLSKADYEKHKVYACEVTHQGLSSPVTKSFNRGEC
B1: the binding result with human CD33-Fc fusion is reported as “binds”.

B2: AKH-5 (bispecific antibody)
chain: QVQLLQSGAELKKPGESLKISCKGSGYSFTSYWIAWVRQMPGKGLEYMGLIYPGDSDTKYSPSFQGQVTISVDKSVSTAYLQWSSLKPSDSAVYFCARHDVGYCSSSNCAKWPEYFQHWGQGTLVTVSSGGGGSGGGGSGGGGSGGGGSQSVLTQPPSVSAAPGQKVTISCSGSSSNIGNNYVSWYQQLPGTAPKLLIYGHTNRPAGVPDRFSGSKSGTSASLAISGFRSEDEADYYCASWDYTLSGWVFGGGTKLTVLGGGGGSGGSLAALTAHQACHLPLETFTRHRQPRGWEQLEQCGYPVQRLVALYLAARLSWNQVDQVIRNALASPGSGGDLGEAIREQPEQARLALTLAAAESERFVRQGTGNDGGGGSGGGGSQVQLVESGGGLVKPGGSLRLSCAASGFTFSDYAMSWIRQAPGKCLEWVSSINIGATYIYYADSVKGRFTISRDNAKNSLYLQMNSLRAEDTAVYYCARPGSPYEYDKAYYSMAYWGQGTTVTVSSGGGGSGGGGSGGGGSGGGGSDIQMTQSPSSLSASVGDRVTITCRASQDIKNYLNWYQQKPGKAPKLLIYYSSTLLSGVPSRFSGSGSGTDFTLTISSLQPEDFATYYCQQSITLPPTFGCGTKVEIKHHHHHH
notes: also called <HER2> scFv-PExII-<DIG> scFv-His6; drawn as <Her2> - PExI - <DIG> - 6xHis
Turning to B2, the binding result in [1] was “binds”.

B3: recombinant humanized <Dig> IgG antibody (antibody, V domains shown)
VH: QVQLVESGGGLVKPGGSLRLSCAASGFTFSDYAMSWIRQAPGKGLEWVSSINIGATYIYYADSVKGRFTISRDNAKNSLYLQMNSLRAEDTAVYYCARPGSPYEYDKAYYSMAYWGQGTTVTVSS
VL: DIQMTQSPSSLSASVGDRVTITCRASQDIKNYLNWYQQKPGKAPKLLIYYSSTLLSGVPSRFSGSGSGTDFTLTISSLQPEDFATYYCQQSITLPPTFGGGTKVEIKR
notes: also called hu<DIG> IgG; <DIG>hu2; not shown: hinge-CH2-CH3 of human IgG1
One may read the Kd as the constant that tells how readily two partners part at equilibrium. A higher Kd goes with a looser complex. Usually koff stands for the first-order rate constant of dissociation. Read a low koff as a long-lived complex. For orientation: kon means a measure of how fast the partners come together. Low readings indicate slower complex formation, high ones faster complex formation. Consider B3, for which the dissociation constant Kd in assay [2] was less than 0.076 nM; in [3], 15.8 nM; in assay [4] it was 11.8 nM. Besides, the koff in [3] was determined as 0.00982 s⁻¹; in [4], 0.00881 s⁻¹. Also, the values for the kon in [3] and in assay [4] were 620000 M⁻¹ s⁻¹ and 749000 M⁻¹ s⁻¹, respectively.

B4: <VEGFR2(D1F7)-DIG>_001 (bispecific antibody, human IgG1, kappa)
heavy: not shown
light: QSVLTQPPSASGTPGQRVTISCSGSTSNIGTNTANWFQQLPGTAPKLLIHNNNQRPSGVPDRFSGSKSGTSASLAISGLQSEDEADYYCAAWDDSLNGHWVFGGGTKLTVLRTVAAPSVFIFPPSDEQLKSGTASVVCLLNNFYPREAKVQWKVDNALQSGNSQESVTEQDSKDSTYSLSSTLTLSKADYEKHKVYACEVTHQGLSSPVTKSFNRGEC
Take B4: the binding result with human VEGFR2-Fc and in the assay with mouse VEGFR2-Fc was “binds” each time.

B5: hybridoma-derived murine <Dig> 19-11 antibody (antibody, V domains shown)
VH: EVQLVESGGGLVKPGGSLKLSCAVSGFTFSDYAMSWIRQTPENRLEWVASINIGATYAYYPDSVKGRFTISRDNAKNTLFLQMSSLGSEDTAMYYCARPGSPYEYDKAYYSMAYWGPGTSVTVSS
VL: DVQMTQSTSSLSASLGDRVTISCRASQDIKNYLNWYQQKPGGTVKLLIYYSSTLLSGVPSRFSGRGSGTDFSLTITNLEREDIATYFCQQSITLPPTFGGGTKLEIK
notes: also called murine DIG-IgG 19-11; <DIG>M-19-11
Consider B5, for which the Kd is 0.033 nM in assay [5], 0.386 nM in assay [3], 33 nM in [7] and 0.295 nM in [4]. In addition, the “fold better affinity than <DIG>-hu2 and the disulfide-stabilized <DIG> scFv” value in [6] was roughly 100 fold. The koff turned out to be 0.000676 s⁻¹ in assay [3] and 0.000675 s⁻¹ in assay [4]. Moreover, the kon in [3] worked out at 1.75e+06 M⁻¹ s⁻¹; in [4] it was 2.28e+06 M⁻¹ s⁻¹.
